Results: PMC2828957 (Molecular Biology of the Cell, 2010)
Blank lines part the entries; values can stand above or below the binder they belong to.

B1: Sec62N-ΔN10-ΔC40 (human Sec62 residues 11-155, C-terminal hexa-histidine tag) (domain or fragment, UniProt Q99442 11-155, looked up)
chain: IQEVGEPSKEEKAVAKYLRFNCPTKSTNMMGHRVDYFIASKAVDCLLDSKWAKAKKGEEALFTTRESVVDYCNRLLKKQFFHRALKVMKMKYDKDIKKEKDKGKAESGKEEDKKSKKENIKDEKTKKEKEKKKDGEKEESKKEET
B2: human Sec62N (N-terminal domain of human Sec62, residues 1-195, C-terminal hexa-histidine tag) (domain or fragment, UniProt Q99442 1-195, looked up)
chain: MAERRRHKKRIQEVGEPSKEEKAVAKYLRFNCPTKSTNMMGHRVDYFIASKAVDCLLDSKWAKAKKGEEALFTTRESVVDYCNRLLKKQFFHRALKVMKMKYDKDIKKEKDKGKAESGKEEDKKSKKENIKDEKTKKEKEKKKDGEKEESKKEETPGTPKKKETKKKFKLEPHDDQVFLDGNEVYVWIYDPVHFK

What was measured:
[1] = target: T1, GST-Sec63C (complete C-terminal domain of human Sec63, residues 210-760, N-terminal GST) (human, UniProt Q9UGP8 210-760); assay: pull-down
T1 sequence (looked up): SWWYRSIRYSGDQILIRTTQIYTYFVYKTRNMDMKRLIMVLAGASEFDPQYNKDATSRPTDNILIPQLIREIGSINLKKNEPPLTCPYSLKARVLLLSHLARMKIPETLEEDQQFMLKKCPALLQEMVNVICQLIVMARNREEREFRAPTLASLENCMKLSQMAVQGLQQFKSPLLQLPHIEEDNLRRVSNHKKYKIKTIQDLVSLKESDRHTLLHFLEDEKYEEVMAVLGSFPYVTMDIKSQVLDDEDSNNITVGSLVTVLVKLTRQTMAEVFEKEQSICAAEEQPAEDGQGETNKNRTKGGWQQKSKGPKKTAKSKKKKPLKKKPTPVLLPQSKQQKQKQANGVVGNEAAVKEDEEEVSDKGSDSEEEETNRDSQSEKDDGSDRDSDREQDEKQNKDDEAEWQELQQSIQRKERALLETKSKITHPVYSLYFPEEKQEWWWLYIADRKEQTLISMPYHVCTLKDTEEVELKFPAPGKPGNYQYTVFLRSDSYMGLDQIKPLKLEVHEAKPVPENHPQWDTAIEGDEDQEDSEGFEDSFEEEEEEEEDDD

[2] = target: T1, GST-Sec63C (complete C-terminal domain …); assay: SPR
[3] = target: B1; assay: pull-down
[4] = target: B2; assay: pull-down

Binder: B1
binding result [1]: binds

Binder: B2
Kd [2]: 4.78 nM

binding result [3]: binds
binding result [4]: binds
Binder: EGDEDQEDSEGFEDSFEEEEEEEEDDD (domain or fragment, UniProt Q9UGP8 734-760, looked up) [GST-Sec63C26 (C-terminal 26 amino acid residues of human Sec63, residues 734-760, N-terminal GST)]
